Results reported in PMC4109901, “Functional EF-Hands in Neuronal Calcium Sensor GCAP2 Determine Its Phosphorylation State and Subcellular Distribution In Vivo, and Are Essential for Photoreceptor Cell Integrity” (PLoS Genetics, 2014).

B1: recombinant bGCAP2, mock-treated (unphosphorylated) (natural protein, bovine, UniProt P51177 1-204, looked up)
chain: MGQQFSWEEAEENGAVGAADAAQLQEWYKKFLEECPSGTLFMHEFKRFFKVPDNEEATQYVEAMFRAFDTNGDNTIDFLEYVAALNLVLRGTLEHKLKWTFKIYDKDRNGCIDRQELLDIVESIYKLKKACSVEVEAEQQGKLLTPEEVVDRIFLLVDENGDGQLSLNEFVEGARRDKWVMKMLQMDLNPSSWISQQRRKSAMF
notes: Cross-linked to magnetic beads for the pull-down; also called mock bGCAP2; recombinant wildtype bGCAP2
B2: recombinant phosphorylated bEF^−GCAP2 (natural protein, bovine, UniProt P51177 1-204, looked up)
chain: MGQQFSWEEAEENGAVGAADAAQLQEWYKKFLEECPSGTLFMHEFKRFFKVPDNEEATQYVEAMFRAFDTNGDNTIDFLQYVAALNLVLRGTLEHKLKWTFKIYDKDRNGCIDRQQLLDIVESIYKLKKACSVEVEAEQQGKLLTPEEVVDRIFLLVNENGDGQLSLNEFVEGARRDKWVMKMLQMDLNPSSWISQQRRKSAMF
modifications: phosphorylated in vitro by PKG; Ser201 named as the site
notes: Cross-linked to magnetic beads for the pull-down
B3: recombinant bEF^−GCAP2, mock-treated (unphosphorylated) (natural protein, bovine, UniProt P51177 1-204, looked up)
chain: MGQQFSWEEAEENGAVGAADAAQLQEWYKKFLEECPSGTLFMHEFKRFFKVPDNEEATQYVEAMFRAFDTNGDNTIDFLQYVAALNLVLRGTLEHKLKWTFKIYDKDRNGCIDRQQLLDIVESIYKLKKACSVEVEAEQQGKLLTPEEVVDRIFLLVNENGDGQLSLNEFVEGARRDKWVMKMLQMDLNPSSWISQQRRKSAMF
notes: Cross-linked to magnetic beads for the pull-down; also called mock bEF^−GCAP2; unphosphorylated bEF^−GCAP2
B4: recombinant phosphorylated bGCAP2 (natural protein, bovine, UniProt P51177 1-204, looked up)
chain: MGQQFSWEEAEENGAVGAADAAQLQEWYKKFLEECPSGTLFMHEFKRFFKVPDNEEATQYVEAMFRAFDTNGDNTIDFLEYVAALNLVLRGTLEHKLKWTFKIYDKDRNGCIDRQELLDIVESIYKLKKACSVEVEAEQQGKLLTPEEVVDRIFLLVDENGDGQLSLNEFVEGARRDKWVMKMLQMDLNPSSWISQQRRKSAMF
modifications: phosphorylated in vitro by PKG; Ser201 named as the site
notes: Cross-linked to magnetic beads for the pull-down; also called P-GCAP2

Target: the molecule itself
Test: SDS-PAGE and immunoblot; in vitro phosphorylation reactions (with or without cGMP, in EGTA) of purified recombinant GCAP2 resolved by 15% SDS-PAGE and immunostained for GCAP2; bands above the 25 kDa monomer

Binding result, binds:
B1
B2
B3
B4
